This note sets out measurements from a protein production outcome set (Wang et al. 2014).

The data set in a line: label from the status in PepcDB records.
As to “MSLANLSELPNIGKVLEQDLIKAGIKTPVELKDVGSKEAFLRIWENDSSVCMSELYALEGAVQGIRWHGLDEAKKIELKKFHQSLEGHHHHHH”, the protein production entry is on record as “not failed”.

Take “MNRVYVGTVSAVTDIGVFVNLNKRLRGLIHRRNLGNNRFSEDEEILVQVSGIGLSGEIDLKPVKMDGYKVVEISKEVGRVEIAELENLEHHHHHH”: the protein production result is “failed”.

For “MILKKEYSYESLRKKGAKKKKNFLCLQKYAMIYLVIRRYPYMSFGQKFKHFLAPLDEDDILEVEQDAEEEDAQTISQYEQQRSRMNKLPNDTKMVLFEPRSFDEADEIARRLKENKAAVVNLHKLQREYAQRTIDFLTGVIFALDGSIQKIGHNVILCTPNNVPVQGQITLDSGEDE”, the protein production result was “failed”.

For “MEKENDENITKKLSLKKVLFNSLFVSLSILVLGFVINYKYAVGYIFILVIHELGHYIIAKFLKVSVAFGGFTPVGAYIIHENPKNCKENALIAMGGPLFGGLLGLIYYIVYYVTGNNTFLVLTFTSIILNLGNLIPVSPLDGGQIAEAISPTLCYIGFPVLIYLFILLNSLKSKILLLFIIVAGIYQTYYFTMKYKTDPYYKLDKPSKIKFIFIYSILVLSLTISAIYLYNSFDFKDIFHSIARFK”, the protein production entry is reported as “failed”.

On to “MSLETVRLQRELIEAQRQTYNEMRTYFTVNGVEGVIGAVFDEGVITLRVPSEVLFAPGAVELAPGADRVLATLKDLFIRRREQNINIKGFTDDVQPSANARFKDNWEVSALRSVNVLRYFLGAGIEPARLTATGLGELDPLFPNTSDENRARNRRVEFVLERRVVREGHHHHHH”, for which the protein production entry is given as “not failed”.

Regarding “MMQPLQLSAGGFAVVLGTNEIASAVAVHLHREGCCVVMSHDPFPPVIRRKMAFHDALYGDEVTVEGVRGERVDHATQIFKALRRSDNVLVSWLALPDLLPIGAVDVLIDARMQKHRVTPDLRGLARISVGLGPGFSTAVNCDVAIETRPGRSGLIVGAGWTDAADGVASPLGGVGAERFEYSQASGRWRTAVEIGSRVFSGFTIGHLGGVPVRAPCDGILRGVVRDGQDVPQGVKLLEVDSRGRHAQWTGIDDRGRGIAKAVLRAVQPQAEIRTSYAAQPIAVFLEHHHHHH”, the protein production result was “not failed”.

For the sequence “MEDSGAILCQISIFKDMLDQVNREIEANIQVTREIESQIGACSEIESSLSLKEPELTRSFLASQFEISGLISVTADSRNSLKLLEDEICCLRSEHSELITKTNREAVNINNCIVLDFV”, the protein production result is “failed”.

For “LNSSYVNGNTAGNLYNAGLFCESDGEVFFSNTNDNGRLYAMNIDGSNIHKLSNDTAMYINADKNYVYYVRNNNQKITSQTFFSYDRNSLCRIKRNGHGSTVLDPDPCIYASLIGNYIYYLHYDTQTATSLYRIRIDGEEKKKIKNHYLFTCNTSDRYFYYNNPKNGQLYRYDTASQSEALFYDCNCYKPVVLDDTNVYYMDVNRDNAIVHVNINNPNPVVLTEANIEHYNVYGSLIFYQRGGDNPALCVVKNDGTGFKELAKGEFCNINVTSQYVYFTDFVSNKEYCTSTQNPDTIKALQP”, the protein production result was “not failed”.

As to “MKSNRLIKRLDWYIIKKFLGTYVFAIALIISIAVVFDFNEKMDKLMEHEAPWDKIIFEYYMNFIPYFSNLFSPLFVFIAVIFFTSKLAENSEIIAMFSTGMSFKRMMRPYMISAAIIAAATFMMSSFIIPKGSVTRLNFEDKYIKPKKVNSVRNVQLEVDSGVIAYIDNYNDGMKTGNRFSLDKFVDKKLVSHLTARRITYDTTTVNKWTIHDYMVRELDGLKEKITKGDRIDSIINMDPSDFLIMKNQQEMLTSPELSEYIEKQKRRGFANIKEFEIEYHKRIAMSFASFILTIIGVSLSSRKTKGGMGLHLGIGLGLSFSYILFQTITSTFAINGNVPPAIAVWIPNILYAGIAFYLYQKAPK”, the protein production entry was “failed”.

Take “MNLGQWGEIMSWLCLLPISGGIVYNLLTVFTTSLFLARSLPKQDFQPGVSVLKPVRGLEKNLEANLRTIAQQNYPAYEVIYCVQDPQDPALPIVKKLQAEFGPEKIIVAVHQIEQGANGKVNNLLGGLKHAKYDILVISDSDTNLRPDYLATMVSPLGDRLVGCVTTPFKLTQAQTWYEGLELLSINADFMPSVLFAEVTGASKACLGPSIAIRRSTLTEIGGLESLADYLVEDFELGQRVWTGGLKMVLLPYVIDAGVNLDNWTNWWSHQLYWDQNTYLARPLPFLATIIIRAVPFAFLFTFCHWSEPWAWLILFITLATRYGTAAIVAQELKDGETIRYLPLLLLRDCFGLVFWALSFSQRQVLWRGITYRLTKGGKMIPASPIPKS”: the protein production result is given as “failed”.

“MDKTKTFCKASLVSIALVLLLVSSAALAATENDTGNATIKDDYVSSTAMANTEGSSLPKVTETQITTSGFHPAIYGNRIVWTDYHDEECNIYMYDLSTKKETQITTSGDVSGSDIYGNRIVWSNYVYPNEVYMYDLSTSQKSTISGYNSYVDSLSIYGDKVVWGDSLDDYVSIFMHDLSTKEETLLTYDAYNPAIYGNRIVWEDRFDDNIYMYDISTKKQTRITNGGAADDPAIYGNRIVYASTHDGNTDIYMYDLSTKKQTQITSSPDAQTHPAIYGNRIVWEDDGGEDDGYTNHGIYMYDISTNQKMKISTKGSAYSPTIYGNNIVWEYYNNENGKLRNLHGHYFRTKTEPSYCCILCIPNFRKNTIKSYFY”: the protein production result is listed as “failed”.

For “MKAYTKLLASLVLLSGAYGAPGFANTPELSDKTFRTVNKVQELIATEKYADALSKLNSALSSTSKKQYDRAVLLQQMGFLYSLQDDYPKAAKYFADALSLNALPVPVAQQVRYSLAQLYLAEGQFKKSVATMNEWFKIAETTEEKPQAHAYITLASAYVQLEDYKNAIPPAKQAIAMSKEPSESWYQLLMSAHYELKQFKSVAGVLKILTTKYPKNKRYWTQLSGIYMELNQERNALSTLEMAHKMGLLEGEKEYLRLVNFQAYQGVPFRAAKTLQAAFDNGHVERNAKNLETLGSFWQQAQELEQAIDVYQQAYNLAPQAKTQIKIARLMILDKQYTEATKFTQNAAPDAKHEQKGELSYIRGMAYFELNQPSNALKAMKSAAQSPDMRAMASPWINFLESQG”, the protein production entry is given as “failed”.

As to “MNLVKFTLDKANSQAYSSEQTTTEVSNMTIENGVRVLAGSMVLLSVILTWFVHPNFLWLTVFVGVNLIQSAFTGFCPAAFFLKKLGLR”, the protein production result is recorded as “failed”.

On to “MEAWIFEIMRAVGRFFLHPAVYVFLISSIFVGYLRMLRERKDFSFKVYDIWFELRTSLLAGVKYGLIVSIITIGLGLVVSKASLWAILLWTLLFGLTAMYRYLSAAYTFSVAIVCVLLSSKLPVSFLQLGEGEENTIVSLAILLGIMLVVEGLLISKNAVGYSTPKIRKGKRGLKIGLHESKRLWIVPIFILVPGEAVTQFISWWPVVSIGSHTYSLFLVPFLIGFMRRIRSYEPTEALLFTGRRVYGLAGLVLVLGIASYWWHVLAIIAMGVAMLGRFTISMQEKIADETRPAYFAARNDGLVVLDTIPNTIGAELNLLPGEMITKVNGVIPRSAEEFYDALQTKTTGAFCKLEVLDTNGELRLAQTALYAGGHHELGIVFVQQEHEWDSEAM”, for which the protein production entry is “failed”.

Consider “MTVLIIGMGNIGKKLVELGNFEKIYAYDRISKDIPGVVRLDEFQVPSDVSTVVECASPEAVKEYSLQILKNPVNYIIISTSAFADEVFRERFFSELKNSPARVFFPSGAIGGLDVLSSIKDFVKNVRIETIKPPKSLGLDLKGKTVVFEGSVEEASKLFPRNINVASTIGLIVGFEKVKVTIVADPAMDHNIHIVRISSAIGNYEFKIENIPSPENPKTSMLTVYSILRTLRNLESKIIFG”, for which the protein production entry is given as “not failed”.

On to “MSSERQLAGRIVVPGEPLPEEVEASPPYVIDYKGVKRATVVGLLREKGDGGGRAFVKLKEIYVPQAGDVVIGLIQSVGIMNWFVDINSPYVAVLSVQDFLGRPFNPAVDDMQSLLKVGDYIKAKVVAFDKTRSPLLTVQGEGLGRIVRGKIVEISPAKVPRVIGRKMSMLKTLEEKTECKIFVARNGRIHLECPNEDLEAIAVMAIKIIDEEAYTSGLTKRIIKFIEEERRIREV”, for which the protein production entry was “not failed”.

Regarding “MNFKESRAIYLQIADRICDDILLGQYEEEGRIPSVREYASIVEVNANTVMRSYEYLQSQEVIYNKRGIGFFVASGAKMLIHSLRKEQFLKEEVGSFFRQLYTLGISIKEIEKMYYEFIQRQNQ”, the protein production entry is “not failed”.

Take “MAAILISLIGKYGMNGIFIATFMAGIFLLLAGIFRLGNLISLIPSPVITGFTSGIAIIIASGQIKNFFGIEHFTGSFFDLMKFISGLHIDYPSTIIGLLTILLMIFYPKSWGKKFPASLLAILLSTLAVLALKLDIPLVGKIPTTLIPQAHLRLTELNPQDMKTLLIPAISITVLGMTESLLCGASAGRATNHPMDNNQELVAQGIGNIFIPFFGGIPATAAIARTSVAIKAGAQTRLTGIIHALILLLSMFLFAPFMTHIPLSALAGVLIMTAVRMNEWEAIRFLFKNKLKSGIIEFFVTMIITVIFDLSTAILAGIVVGFLLFIVKISQIEINSSQIEPERISQNHHEVFTDWTVIYISGPLFFLNSSKLKQAIDELPANTNAVLSLRGVPMIDVTSIKLLIDIYSIFHKEERQIVFASMNPKLKESFKRTGLISMVGEEAIYPSVNEFLLDLVDKNK”: the protein production result is given as “failed”.

Turning to “NIGSAVPRGELVLAMEKIGKLLQERGGSVVIRGHTDGRQFKGEANDNWRLSMDRAHSAYYMLVRGGLSEERVKQVSGFADRRLQVPSNPLADANRRIEILLEADR”, the protein production entry is on record as “failed”.

Consider “MSDARAWDSPDDAHRLIAKALAELVAEDPTIPPHPYLSRHLAQHAARGRVLDDTHVPLAILPWESSRNVRILLRQTGATQQQDWLEAWAGIEPFVRDADPDSRLTSLHLAHHTATCRRLSLTARPVSERRLAGSRITPLWSDWTAPDNVLAVSDTLVESLAHTTTAPGRTLLISGDSHGTIRMWEANGTPAGAPLHTHGGAIQHLLPLQHDLLVSGGTDGAVRVWHSTRGQQLVEPVRRPHTWVSALALFEPADGARFLLVAHSDGHLTALDPVTFEPADTPLPALDPAPAILTPLATADGTALVIAQGRRVVVWRPGRGVVHISEHQGEVRAVVALPSGGRYAVCDDSGYLGFWDVSTGHETVAAGPAHDGPVIALTTLAVDGRQTVVSAGLDHTLRVWDADTGRPVGGALEGHTDPPVALTTLPGEGQELVVSAAADHTLRRWKLAGHGTRPRRPVRRPVTAAALPGPTVVPALLAAVADGAGTALWNVRTGRHVSLPAGEPPVTAFAWATVHGDPVLLTAHSDAAVRLWSLYAGNAVTPSLRGTLLNHSLPVQAMTAFPHAGATLLATGGADGSVRLWHLGDRLELAHWDDHALSVRDVTLLGTGEDALIVSAGSDGTVRLWDPGTRRASGGPVHCGQQVVHAVTTVAPHPDEAALIASGGEDGTVRLWDPTTRQPVGDPLDARDGAVTALASFHTPAGRPCLAAAGPSGTIHLWDVAARTHLLRIVTGNPLSTLAARQTGEPFTEHPVLLAAGTAGVCMFDVRLERLR”, for which the protein production result is on record as “failed”.

“MTRPYSLTRYAWLSIFVAIFTMAVKAAAYRVTGSVGLLSDALESIVNLSAAVVALAMLRLSAQPADARHHFGHGKAEYFASGFEGVLILVAAGAILFAAWDRYLHPHELAELDLGLGLSVAAAVVNGLVGWLLVSVGRKAGSIVLEADGKHLLTDVWTSIGVVCGVAAAGLTGWHDFDPGVAALVGLNIVWTGAGLIRRTIAGLLDASLPLEENLKIRGILETFRERGVGFHDLRTRQSGAHRFMSVHLLVPGAWTVQAAHDLAEEIEAELGGALANLTVVTHIEPIEDPASFGHHEPFPETAPEVTNPHPPQTARPLRLKIASVAGAALLLGGGVAGVVVSGVWLDLALAAVLFGFVLILAVQRRGGRQRKAGRQ”: the protein production result was “failed”.
